Read-outs that look alike come from different tables or passages of the source.
T1: wt^Sd (Scalloped 223–440), N-biotinylated-Avitagged (Drosophila melanogaster, UniProt P30052 223-440, biotin on the Avi-tag; acylated (incubated with myristoyl coenzyme A; purified as a mixture of acylated and non-acylated proteins))
T1 construct: Immobilised on SPR sensor chips by the biotinylated Avi-tag; also called Sd^223–440; source: E. coli BL21(DE3) with a BirA plasmid, purified (HisTrap, HRV 3C cleavage, Superdex 75); not shown: His6, N-terminal, cleaved; Avi-tag, N-terminal, kept
T1 sequence (looked up): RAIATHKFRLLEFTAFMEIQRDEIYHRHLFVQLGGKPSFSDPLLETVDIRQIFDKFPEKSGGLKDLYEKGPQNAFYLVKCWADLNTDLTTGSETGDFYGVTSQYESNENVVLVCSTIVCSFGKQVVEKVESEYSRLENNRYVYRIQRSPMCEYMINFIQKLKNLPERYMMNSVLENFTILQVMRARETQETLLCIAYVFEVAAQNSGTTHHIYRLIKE

T2: Tyr435His^Sd (Scalloped 223–440), biotinylated Avi-tagged (Drosophila melanogaster, UniProt P30052 223-440, Tyr435His, biotin on the Avi-tag; incubated with myristoyl coenzyme A)
T2 construct: Scalloped (Sd), Drosophila melanogaster, UniProt P30052, amino acids 223–440, with Tyr435His; source: E. coli BL21(DE3) with a BirA plasmid, purified (HisTrap, HRV 3C cleavage, Superdex 75); not shown: His6, N-terminal, cleaved; Avi-tag, N-terminal, kept
T2 sequence (looked up): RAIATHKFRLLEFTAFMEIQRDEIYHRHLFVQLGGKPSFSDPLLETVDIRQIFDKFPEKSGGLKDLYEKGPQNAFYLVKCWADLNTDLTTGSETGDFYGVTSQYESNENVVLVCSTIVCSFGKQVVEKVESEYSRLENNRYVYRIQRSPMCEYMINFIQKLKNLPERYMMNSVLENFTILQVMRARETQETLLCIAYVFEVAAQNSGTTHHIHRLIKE

T3: Asp276Ala^Sd (Scalloped 223–440), biotinylated Avi-tagged (Drosophila melanogaster, UniProt P30052 223-440, Asp276Ala, biotin on the Avi-tag; incubated with myristoyl coenzyme A)
T3 construct: Scalloped (Sd), Drosophila melanogaster, UniProt P30052, amino acids 223–440, with Asp276Ala; also called Asp246Ala^Sd (as printed in two sentences); source: E. coli BL21(DE3) with a BirA plasmid, purified (HisTrap, HRV 3C cleavage, Superdex 75); not shown: His6, N-terminal, cleaved; Avi-tag, N-terminal, kept
T3 sequence (looked up): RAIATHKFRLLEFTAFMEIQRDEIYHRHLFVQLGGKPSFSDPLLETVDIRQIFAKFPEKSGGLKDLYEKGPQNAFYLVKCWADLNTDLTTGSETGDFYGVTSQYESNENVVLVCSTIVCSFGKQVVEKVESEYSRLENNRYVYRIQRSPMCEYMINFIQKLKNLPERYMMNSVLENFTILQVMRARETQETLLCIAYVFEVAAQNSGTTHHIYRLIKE


Columns and labels:
[1] = molecular target: N-terminally V5-tagged Asp272Ala^TEAD4 (full length) (human) (UniProt Q15561); test: co-IP; V5-TEAD4 and (FLAG)3-VGLL2 co-transfected into HEK293FT YAP/TAZ double knockout cells; V5 immunoprecipitation, anti-FLAG Western blot; similar results in wild-type HEK293FT cells
Chain of N-terminally V5-tagged Asp272Ala^TEAD4 (full length) (human) (Q15561 whole entry D272A): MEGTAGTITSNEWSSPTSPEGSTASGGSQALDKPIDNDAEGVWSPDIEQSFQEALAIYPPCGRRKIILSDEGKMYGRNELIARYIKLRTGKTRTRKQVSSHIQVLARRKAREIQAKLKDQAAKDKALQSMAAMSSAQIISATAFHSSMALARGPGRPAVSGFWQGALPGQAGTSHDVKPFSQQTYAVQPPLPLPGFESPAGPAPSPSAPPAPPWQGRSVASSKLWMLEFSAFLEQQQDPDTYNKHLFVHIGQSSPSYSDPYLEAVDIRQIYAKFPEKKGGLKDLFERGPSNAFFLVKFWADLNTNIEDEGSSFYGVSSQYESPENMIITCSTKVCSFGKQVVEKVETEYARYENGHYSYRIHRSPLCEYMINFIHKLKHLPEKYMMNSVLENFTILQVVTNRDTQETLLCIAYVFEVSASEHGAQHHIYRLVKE

[2] = molecular target: TEAD4 (protein of the SPR and TR-FRET assays) (human); test: SPR; peptides against TEAD4; Kd at equilibrium; peptide stocks in DMSO or in acetonitrile:(water + 1 mM TCEP)
[3] = molecular target: TEAD4 (protein of the SPR and TR-FRET assays) (human); test: FRET or BRET; TR-FRET assay with TEAD4; potency (IC50) of peptides; methodology in Fig. S8
TEAD4 (Homo sapiens) = TEAD4 (Homo sapiens) (UniProt Q15561); conditions: cited from earlier work
Chain of TEAD4 (Homo sapiens) (Q15561 whole entry, the tested form may be a part): as the sequence (Q15561 whole entry D272A) above, with A272D counted along it

[4] = molecular target: wt^Sd (Scalloped 223–440), N-biotinylated-Avitagged (Drosophila melanogaster) (UniProt P30052); test: SPR; N-biotinylated-Avitagged Sd (wild type or mutant) immobilised on sensor chips; Yki or Vg fragment as analyte; Kd at equilibrium by a standard SPR method
[5] = molecular target: T1, wt^Sd (Scalloped 223–440), …; test: as above; conditions: both partners purified
[6] = molecular target: T1, wt^Sd (Scalloped 223–440), …; test: SPR; N-biotinylated-Avitagged Sd (wild type or mutant) immobilised on sensor chips; Kd by kinetic titration (Kd^KT); conditions: both partners purified
[7] = molecular target: T2, Tyr435His^Sd (Scalloped 223–440), …; test: as above; conditions: both partners purified
[8] = molecular target: T3, Asp276Ala^Sd (Scalloped 223–440), …; test: as above; conditions: both partners purified
[9] = molecular target: TEAD4 (protein of the SPR and TR-FRET assays) (human); test: SPR; peptides against TEAD4; Kd at equilibrium; peptide stocks in DMSO or in acetonitrile:(water + 1 mM TCEP); remark: listed apart in the source
[10] = molecular target: T2, Tyr435His^Sd (Scalloped 223–440), …; test: SPR; N-biotinylated-Avitagged Sd (wild type or mutant) immobilised on sensor chips; Yki or Vg fragment as analyte; Kd at equilibrium by a standard SPR method; conditions: both partners purified
[11] = molecular target: T3, Asp276Ala^Sd (Scalloped 223–440), …; test: as above; conditions: both partners purified

Chain of VGLL1 27-51 (Q99990 27-51): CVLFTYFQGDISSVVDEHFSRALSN

| Molecule | Kd [2] [nM] | IC50 [3] [nM] | Kd [5] [nM] | further results |
| --- | --- | --- | --- | --- |
| (FLAG)3-delΩ^VGLL2 (full length with the Ω-loop deleted) (from UniProt Q8N8G2-1 1-317) (natural protein) |  |  |  | fold reduction of co-immunoprecipitation against wt^TEAD4 with wt^VGLL2 [1]: 2 fold |
| Flyman (hybrid peptide: β-strand:α-helix and Ω-loop of VGLL2 connected by the linker from Vg) | 4.3 |  |  |  |
| VGLL1 27-51 (from UniProt Q99990) |  |  |  | Kd (TEAD4 (Homo sapiens)): 160 nM |
| Vg^298–337 (from UniProt Q26366 298-337) (peptide) |  |  |  | Kd [4]: 61 nM |
| Vg^263–382 (domain or fragment, Drosophila melanogaster, UniProt Q26366 263-382, looked up, Vestigial (Vg), Drosophila melanogaster, UniProt Q26366, amino acids 263–382; also called Vestigial 263–382; source: E. coli (BL21(DE3) and NiCo21(DE3) are both named), purified (HisTrap, HRV 3C cleavage, Superdex 75); not shown: His-tag, N-terminal, cleaved; strep-tagII, N-terminal, cleaved; rubredoxin, N-terminal, cleaved) ETPMGSGGGGLAGSGQGQAQYLSASCVVFTNYSGDTASQVDEHFSRALNYNNKDSKESSSPMSNRNFPPSFWNSNYVHPIPAPTHHQVSDLYGTATDTGYATDPWVPHAAHYGSYAHAAH |  |  | < 2 | Kd [6]: 0.38 nM; Kd [7]: 24 nM; Kd [8]: 5.5 nM |
| Ac-CVLFTYFQGDISSVVDEHFSRALS-NH2 [VGLL2^85–108] | 590 | 340 |  |  |
| Ac-PMSQRSFPASFWNSA-NH2 [VGLL2^135–149] |  | 133000 |  |  |
| VGLL2^85–149 (peptide) peptide: Ac-CVLFTYFQGDISSVVDEHFSRALSQPSSYSPSCTSSKAPRSSGPWRDCSFPMSQRSFPASFWNSA-NH2 | 34 | 6.3 |  |  |

Now from value to molecule, other results behind:

| Kd [2] [nM] | IC50 [3] [nM] | Kd [5] [nM] | Molecule | further results |
| --- | --- | --- | --- | --- |
| 58000 | 98000 |  | YAP^85–99 (from UniProt P46937 85-99) (peptide) |  |
|  |  | 69 | Ac-TDDNLQALFDSVLNPGDAKRPLQLPLRMRKLPNSFFTPP-NH2 (peptide, UniProt Q45VV3 41-79, looked up, Yorkie (Yki), Drosophila melanogaster, UniProt Q45VV3, residues 41–79 (lacks the putative β-strand); source: synthetic peptide, bought: Biosynthan) [Yki^41–79] |  |
| 3.1 |  | < 2 | Ac-CVVFTNYSGDTASQVDEHFSRALNYNNKDSKESSSPMSNRNFPPSFWNSN-NH2 (peptide, UniProt Q26366 288-337, looked up, source: synthetic peptide, bought: Biosynthan) [Vg^288–337] | Kd [6]: 1.6 nM; Kd [9]: 4.1 nM |
|  |  | 23 | Ac-NNLVVRVNQDTDDNLQALFDSVLNPGDAKRPLQLPLRMRKLPNSFFTPP-NH2 (peptide, UniProt Q45VV3 31-79, looked up, Yorkie (Yki), Drosophila melanogaster, UniProt Q45VV3, residues 31–79; only Yki 30–146 and Vg 263–382 are described as recombinant; source: synthetic peptide, bought: Biosynthan) [Yki^31–79] |  |
|  |  | 13 | Yki^30–146 (domain or fragment, Drosophila melanogaster, UniProt Q45VV3 30-146, looked up, Yorkie (Yki), Drosophila melanogaster, UniProt Q45VV3, amino acids 30–146; also called Yorkie 30–146; source: E. coli (BL21(DE3) and NiCo21(DE3) are both named), purified (HisTrap, HRV 3C cleavage, Superdex 75); not shown: His-tag, N-terminal, cleaved; strep-tagII, N-terminal, cleaved; rubredoxin, N-terminal, cleaved) SNNLVVRVNQDTDDNLQALFDSVLNPGDAKRPLQLPLRMRKLPNSFFTPPAPSHSRANSADSTYDAGSQSSINIGNKASIVQQPDGQSPIAAIPQLQIQPSPQHSRLAIHHSRARSS | Kd [6]: 13 nM; Kd [10]: 13000 nM; Kd [11]: 5000 nM |
|  | 160000 |  | Ac-PMSNRNFPPSFWNSN-NH2 [Vg^323–337] |  |
|  |  | 291 | Ac-CVVFTNYSGDTASQVDEHFSRALN-NH2 (peptide, UniProt Q26366 288-311, looked up, Vestigial (Vg), Drosophila melanogaster, UniProt Q26366, residues 288–311 (TONDU domain); also called TONDU domain of Vg; β-strand:α-helix region of Vg; source: synthetic peptide, bought: Biosynthan) [Vg^288–311] |  |
